Data on six molecules can be found in article PMC5498027.

For experiment [1], the target named is T1, taxol-stabilized microtubules polymerized from bovine brain tubulin, Q6B856. Description: MT pelleting assay (western blot densitometry). The note with it: chain shown with the change, 5 mM AMPPNP, read off a plot.
For experiment [2], the target named is T1, taxol-stabilized microtubules …. The experiment in a line: MT pelleting assay (western blot densitometry), fitted curve. As to conditions: chain shown with the change; 5 mM AMPPNP; fitted curve read at 8 µM tubulin; parent: est. 0.95; read off a plot.

T1 sequence (chain, as listed by the source, chain 1 of 2): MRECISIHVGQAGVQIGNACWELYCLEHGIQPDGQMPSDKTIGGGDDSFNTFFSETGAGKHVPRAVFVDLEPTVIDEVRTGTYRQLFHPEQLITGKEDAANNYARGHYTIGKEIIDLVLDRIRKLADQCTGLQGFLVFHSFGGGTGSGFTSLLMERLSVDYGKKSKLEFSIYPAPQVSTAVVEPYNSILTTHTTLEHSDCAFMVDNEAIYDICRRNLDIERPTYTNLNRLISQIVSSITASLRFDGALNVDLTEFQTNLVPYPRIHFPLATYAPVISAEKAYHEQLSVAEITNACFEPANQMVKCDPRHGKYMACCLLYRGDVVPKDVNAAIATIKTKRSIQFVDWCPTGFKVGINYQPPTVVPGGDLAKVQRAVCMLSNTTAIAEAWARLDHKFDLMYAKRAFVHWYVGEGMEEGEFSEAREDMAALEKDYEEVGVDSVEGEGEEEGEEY
T1 sequence (Q6B856 whole entry, chain 2 of 2): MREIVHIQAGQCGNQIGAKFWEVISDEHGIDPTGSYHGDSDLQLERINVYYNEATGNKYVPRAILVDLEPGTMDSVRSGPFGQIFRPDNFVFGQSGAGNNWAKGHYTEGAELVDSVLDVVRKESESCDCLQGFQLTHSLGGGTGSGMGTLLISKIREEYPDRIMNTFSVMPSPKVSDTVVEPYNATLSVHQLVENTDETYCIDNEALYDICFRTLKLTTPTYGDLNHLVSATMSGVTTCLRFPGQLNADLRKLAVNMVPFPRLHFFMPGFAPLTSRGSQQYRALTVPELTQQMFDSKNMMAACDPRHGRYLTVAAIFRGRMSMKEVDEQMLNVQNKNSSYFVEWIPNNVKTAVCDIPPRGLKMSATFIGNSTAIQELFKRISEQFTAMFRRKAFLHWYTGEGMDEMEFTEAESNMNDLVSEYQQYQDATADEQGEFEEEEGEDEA

B1: human Kif5A, first 560 amino acids, wild type, fused to EGFP and a C-terminal 6xHIS tag, Q12840 S203C (protein)
chain: MAETNNECSIKVLCRFRPLNQAEILRGDKFIPIFQGDDSVVIGGKPYVFDRVFPPNTTQEQVYHACAMQIVKDVLAGYNGTIFAYGQTSSGKTHTMEGKLHDPQLMGIIPRIARDIFNHIYSMDENLEFHIKVSYFEIYLDKIRDLLDVTKTNLSVHEDKNRVPFVKGCTERFVSSPEEILDVIDEGKSNRHVAVTNMNEHSCRSHSIFLINIKQENMETEQKLSGKLYLVDLAGSEKVSKTGAEGAVLDEAKNINKSLSALGNVISALAEGTKSYVPYRDSKMTRILQDSLGGNCRTTMFICCSPSSYNDAETKSTLMFGQRAKTIKNTASVNLELTAEQWKKKYEKEKEKTKAQKETIAKLEAELSRWRNGENVPETERLAGEEAALGAELCEETPVNDNSSIVVRIAPEERQKYEEEIRRLYKQLDDKDDEINQQSQLIEKLKQQMLDQEELLVSTRGDNEKVQRELSHLQSENDAAKDEVKEVLQALEELAVNYDQKSQEVEEKSQQNQLLVDELSQKVATMLSLESELQRLQEVSGHQRKRIAEVLNGLMKDLSE
On to B1, for which the response (fraction Kif5A bound) is 0.7 in experiment [1] (2 µM tubulin), 0.83 in experiment [1] (4 µM tubulin), 0.8 in experiment [1] (8 µM tubulin) and 0.86 in experiment [2].

B2: human Kif5A, first 560 amino acids, wild type, fused to EGFP and a C-terminal 6xHIS tag, Q12840 R204W (protein)
chain: MAETNNECSIKVLCRFRPLNQAEILRGDKFIPIFQGDDSVVIGGKPYVFDRVFPPNTTQEQVYHACAMQIVKDVLAGYNGTIFAYGQTSSGKTHTMEGKLHDPQLMGIIPRIARDIFNHIYSMDENLEFHIKVSYFEIYLDKIRDLLDVTKTNLSVHEDKNRVPFVKGCTERFVSSPEEILDVIDEGKSNRHVAVTNMNEHSSWSHSIFLINIKQENMETEQKLSGKLYLVDLAGSEKVSKTGAEGAVLDEAKNINKSLSALGNVISALAEGTKSYVPYRDSKMTRILQDSLGGNCRTTMFICCSPSSYNDAETKSTLMFGQRAKTIKNTASVNLELTAEQWKKKYEKEKEKTKAQKETIAKLEAELSRWRNGENVPETERLAGEEAALGAELCEETPVNDNSSIVVRIAPEERQKYEEEIRRLYKQLDDKDDEINQQSQLIEKLKQQMLDQEELLVSTRGDNEKVQRELSHLQSENDAAKDEVKEVLQALEELAVNYDQKSQEVEEKSQQNQLLVDELSQKVATMLSLESELQRLQEVSGHQRKRIAEVLNGLMKDLSE
In the case of B2, the response (fraction Kif5A bound) in experiment [1] (2 µM tubulin) stood at 0.44; in experiment [1] (4 µM tubulin), 0.41; in experiment [1] (8 µM tubulin), 0.36; in experiment [2], 0.47.

B3: human Kif5A, first 560 amino acids, wild type, fused to EGFP and a C-terminal 6xHIS tag, Q12840 S202N (protein)
chain: MAETNNECSIKVLCRFRPLNQAEILRGDKFIPIFQGDDSVVIGGKPYVFDRVFPPNTTQEQVYHACAMQIVKDVLAGYNGTIFAYGQTSSGKTHTMEGKLHDPQLMGIIPRIARDIFNHIYSMDENLEFHIKVSYFEIYLDKIRDLLDVTKTNLSVHEDKNRVPFVKGCTERFVSSPEEILDVIDEGKSNRHVAVTNMNEHNSRSHSIFLINIKQENMETEQKLSGKLYLVDLAGSEKVSKTGAEGAVLDEAKNINKSLSALGNVISALAEGTKSYVPYRDSKMTRILQDSLGGNCRTTMFICCSPSSYNDAETKSTLMFGQRAKTIKNTASVNLELTAEQWKKKYEKEKEKTKAQKETIAKLEAELSRWRNGENVPETERLAGEEAALGAELCEETPVNDNSSIVVRIAPEERQKYEEEIRRLYKQLDDKDDEINQQSQLIEKLKQQMLDQEELLVSTRGDNEKVQRELSHLQSENDAAKDEVKEVLQALEELAVNYDQKSQEVEEKSQQNQLLVDELSQKVATMLSLESELQRLQEVSGHQRKRIAEVLNGLMKDLSE
Take B3: the response (fraction Kif5A bound) in experiment [1] (2 µM tubulin) was found to be 0.9; in experiment [1] (4 µM tubulin), 0.91; in experiment [1] (8 µM tubulin) it was 0.95; in experiment [2], 1.

B4: human Kif5A, first 560 amino acids, wild type, fused to EGFP and a C-terminal 6xHIS tag, Q12840 E251K (protein)
chain: MAETNNECSIKVLCRFRPLNQAEILRGDKFIPIFQGDDSVVIGGKPYVFDRVFPPNTTQEQVYHACAMQIVKDVLAGYNGTIFAYGQTSSGKTHTMEGKLHDPQLMGIIPRIARDIFNHIYSMDENLEFHIKVSYFEIYLDKIRDLLDVTKTNLSVHEDKNRVPFVKGCTERFVSSPEEILDVIDEGKSNRHVAVTNMNEHSSRSHSIFLINIKQENMETEQKLSGKLYLVDLAGSEKVSKTGAEGAVLDKAKNINKSLSALGNVISALAEGTKSYVPYRDSKMTRILQDSLGGNCRTTMFICCSPSSYNDAETKSTLMFGQRAKTIKNTASVNLELTAEQWKKKYEKEKEKTKAQKETIAKLEAELSRWRNGENVPETERLAGEEAALGAELCEETPVNDNSSIVVRIAPEERQKYEEEIRRLYKQLDDKDDEINQQSQLIEKLKQQMLDQEELLVSTRGDNEKVQRELSHLQSENDAAKDEVKEVLQALEELAVNYDQKSQEVEEKSQQNQLLVDELSQKVATMLSLESELQRLQEVSGHQRKRIAEVLNGLMKDLSE
As to B4, the response (fraction Kif5A bound) was 0.56 in experiment [1] (2 µM tubulin), 0.63 in experiment [1] (4 µM tubulin), 0.73 in experiment [1] (8 µM tubulin) and 0.74 in experiment [2].

B5: human Kif5A, first 560 amino acids, wild type, fused to EGFP and a C-terminal 6xHIS tag, Q12840 R204Q (protein)
chain: MAETNNECSIKVLCRFRPLNQAEILRGDKFIPIFQGDDSVVIGGKPYVFDRVFPPNTTQEQVYHACAMQIVKDVLAGYNGTIFAYGQTSSGKTHTMEGKLHDPQLMGIIPRIARDIFNHIYSMDENLEFHIKVSYFEIYLDKIRDLLDVTKTNLSVHEDKNRVPFVKGCTERFVSSPEEILDVIDEGKSNRHVAVTNMNEHSSQSHSIFLINIKQENMETEQKLSGKLYLVDLAGSEKVSKTGAEGAVLDEAKNINKSLSALGNVISALAEGTKSYVPYRDSKMTRILQDSLGGNCRTTMFICCSPSSYNDAETKSTLMFGQRAKTIKNTASVNLELTAEQWKKKYEKEKEKTKAQKETIAKLEAELSRWRNGENVPETERLAGEEAALGAELCEETPVNDNSSIVVRIAPEERQKYEEEIRRLYKQLDDKDDEINQQSQLIEKLKQQMLDQEELLVSTRGDNEKVQRELSHLQSENDAAKDEVKEVLQALEELAVNYDQKSQEVEEKSQQNQLLVDELSQKVATMLSLESELQRLQEVSGHQRKRIAEVLNGLMKDLSE
As for B5, the response (fraction Kif5A bound) in experiment [1] (2 µM tubulin) was 0.8; in experiment [1] (4 µM tubulin) it was 0.73; in experiment [1] (8 µM tubulin), 0.76; in experiment [2], 0.79.

B6: human Kif5A, first 560 amino acids, wild type, fused to EGFP and a C-terminal 6xHIS tag, Q12840 M198T (protein)
chain: MAETNNECSIKVLCRFRPLNQAEILRGDKFIPIFQGDDSVVIGGKPYVFDRVFPPNTTQEQVYHACAMQIVKDVLAGYNGTIFAYGQTSSGKTHTMEGKLHDPQLMGIIPRIARDIFNHIYSMDENLEFHIKVSYFEIYLDKIRDLLDVTKTNLSVHEDKNRVPFVKGCTERFVSSPEEILDVIDEGKSNRHVAVTNTNEHSSRSHSIFLINIKQENMETEQKLSGKLYLVDLAGSEKVSKTGAEGAVLDEAKNINKSLSALGNVISALAEGTKSYVPYRDSKMTRILQDSLGGNCRTTMFICCSPSSYNDAETKSTLMFGQRAKTIKNTASVNLELTAEQWKKKYEKEKEKTKAQKETIAKLEAELSRWRNGENVPETERLAGEEAALGAELCEETPVNDNSSIVVRIAPEERQKYEEEIRRLYKQLDDKDDEINQQSQLIEKLKQQMLDQEELLVSTRGDNEKVQRELSHLQSENDAAKDEVKEVLQALEELAVNYDQKSQEVEEKSQQNQLLVDELSQKVATMLSLESELQRLQEVSGHQRKRIAEVLNGLMKDLSE
For the molecule B6, the response (fraction Kif5A bound) in experiment [1] (2 µM tubulin) came out at 0.94; in experiment [1] (4 µM tubulin) it was 0.95; in experiment [1] (8 µM tubulin), 0.94; in experiment [2], 1.
